The values below come from patent US20190065668.

This series deals with fluorogenic KAHRP PEXEL peptide DABCYL-…-E-EDANS.

B1: recombinant P. vivax plasmepsin V (residues R35-R476), N-terminal fusion tag removed with TEV protease (protein)
chain: GTRSESTEGHSKDLLYKYKLYGDIDEYAYYFLDIDIGTPEQRISLILDTGSSSLSFPCAGCKNCGVHMENPFNLNNSKTSSILYCENEECPFKLNCVKGKCEYMQSYCEGSQISGFYFSDVVSVVSYNNERVTFRKLMGCHMHEESLFLYQQATGVLGMSLSKPQGIPTFVNLLFDNAPQLKQVFTICISENGGELIAGGYDPAYIVRRGGSKSVSGQGSGPVSESLSESGEDPQVALREAEKVVWENVTRKYYYYIKVRGLDMFGTNMMSSSKGLEMLVDSGSTFTHIPEDLYNKLNYFFDILCIQDMNNAYDVNKRLKMTNESFNNPLVQFDDFRKSLKSIIAKENMCVKIVDGVQCWKYLEGLPDLFVTLSNNYKMKWQPHSYLYKKESFWCKGIEKQVNNKPILGLTFFKNRQVIFDIQKNRIGFVDANCPSHPTHTRPR
Broadly, the Km is the concentration of substrate that gives half-maximal velocity. B1: the Michaelis constant (Km) is 20.2 µM and 6.0 µM for the P. falciparum and P. vivax enzymes, respectively; the “cleavage of the fluorogenic peptide” value was “demonstrated specific activity against the PEXEL substrates and cleaved the peptides after the P1 Leucine residue as expected”.

B2: recombinant P. falciparum plasmepsin V (residues N80-R528) (protein)
chain: NASSDLYKYKLYGDIDEYAYYFLDIDIGKPSQRISLILDTGSSSLSFPCNGCKDCGIHMEKPYNLNYSKTSSILYCNKSNCPYGLKCVGNKCEYLQSYCEGSQIYGFYFSDIVTLPSYNNKNKISFEKLMGCHMHEESLFLHQQATGVLGFSLTKPNGVPTFVDLLFKHTPSLKPIYSICVSEHGGELIIGGYEPDYFLSNQKEKQKMDKSDNNSSNKGNVSIKLKNNDKNDDEENNSKDVIVSNNVEDIVWQAITRKYYYYIKIYGLDLYGTNIMDKKELDMLVDSGSTFTHIPENIYNQINYYLDILCIHDMTNIYEINKRLKLTNESLNKPLVYFEDFKTALKNIIQNENLCIKIVDGVQCWKSLENLPNLYITLSNNYKMIWKPSSYLYKKESFWCKGLEKQVNNKPILGLTFFKNKQVIFDLQQNQIAFIESKCPSNLTSSRPR
With B2, the Km was 20.2 µM and 6.0 µM for the P. falciparum and P. vivax enzymes, respectively; the “cleavage of the fluorogenic peptide” value was “demonstrated specific activity against the PEXEL substrates and cleaved the peptides after the P1 Leucine residue as expected”.
